Assay results as given in the supplement of paper PMC10567573.

B1: OAS1 (parent)
chain: LQLGEGVEFDVLPAFDALGQLTGG
B2: EMID1 (parent)
chain: FTETNNHWPQGPTGPPGPPGPMGP
B3: KCNA4 (parent)
chain: YQSGGRLKRPVNVPFDIFTEEVKF

Variants of: B1
Experiment: protein stability index of a GFP-peptide fusion (GPS, HEK-293T) (PSI 1-6); higher = more stable
Conditions: c terminus: a fixed tail appended
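Also: lentivirally expressed fusions sorted by FACS into six bins by GFP to DsRed ratio, PSI derived from sequencing read proportions per bin multiplied by bin number.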

Protein stability index of substitutions, site by site:
G24: I 3.05, H 3.16, D 1.94, K 2.49, Q 1.98, F 1.17, T 1.48, S 1.81, P 1.64, W 1.45, N 1.5, Y 2.55, E 2.31
T22: M 1.07, F 2.69, S 1.73, Q 1.14, A 3.87, D 1.97, H 2.06, E 2.75, K 2.04, V 1.86, P 1.9, G 2.05, N 1.49, C 2.22, Y 1.08
G23: C 1.52, K 2.13, M 1.13, Y 1.34, H 1.58, D 2.13, L 1.4, P 2.03, V 2.33, E 2.26, F 1.51, R 2.68, T 1.67, Q 2.58, A 2.33, S 1.74, I 1.19
L18: Y 2.13
L21: Y 1.51, K 3.12, I 2.91, E 2.5, C 3.05, A 2.22, S 2.06, N 2.32, G 2.36, V 2.22, P 2.9, F 2.53, H 1.68, Q 3.62, T 1.89, D 3.43
G19: P 1.79, C 2.11, H 1.98, L 2.67, V 1.45, E 1.61, S 1.54, T 2.01, K 2.3, A 1.77, D 2.91, Q 1.61, F 1.76, Y 1.84, N 2
Q20: P 1.78, I 2.06, C 1.29, Y 2.09, G 1.82, D 2.65, L 1.02, T 1.76, E 2.02, V 2.01, N 2.28, K 1.9, S 1.77, H 2.94, M 1.82, F 1.79, R 1.51

Variants of: B2
Experiment: as above
Conditions: c terminus: a fixed tail appended

Protein stability index, by site and new letter:
P16: G 2.4, L 2.14, M 2.47, K 1.83, N 2.23, R 2.52, E 2.54, Y 2.07, I 2.33, T 2.58, S 2.1, D 2.56, V 3.19, A 2.65, F 2.02, C 2.5
P15: R 1.69, I 2.24, Q 2.21, D 2.15, K 2.27, V 1.93, H 2.62, E 2.66, M 2.02, W 1.75, Y 2.58, S 2.88, G 2.44, L 2.34, C 2.68, F 2.11, N 2.25
P19: D 2.68, N 1.8, I 2.72, F 1.79, S 2, K 1.94, L 2.41, E 2.19, Y 1.36, M 1.93, G 2.79, V 1.89
P18: I 1.93, C 1.53, S 2.45, K 2.51, L 2.17, F 2, M 1.68, E 2.11, Y 2.33, G 1.82, Q 1.93, R 2.56, D 2.68, N 1.47, W 2.55, V 2.37

Variants of: B3
Experiment: as above
Conditions: c terminus: a fixed tail appended

Protein stability index, by site and new letter:
Q2: L 1.64, K 2.14, D 2.97, E 2.73, G 1.77, F 2.19, T 1.62, M 2.56, R 2.22, S 2.58, N 2.12, I 1.93, P 2, C 2.63, W 1.48, V 3.32, Y 1.55
R6: S 1.45, I 1.63, G 1.71, D 2.23, H 2.14, K 1.94, E 1.63, T 2.5, L 1.51, P 1.85, M 1.47, Y 2.51, Q 2.15, V 1.77, A 2.19, N 2.16, C 1.26
P10: Q 2.2, K 1.4, F 2.76, T 1.79, H 1.93, M 1.4, N 1.94, G 1.53, S 1.97, R 1.01, A 2.16, E 1.78, D 1.38, I 1.72, Y 1.93, W 1.14, V 2.31
K8: S 1.93, P 1.7, W 5.95, V 1.53, E 1.98, Q 2.56, R 2.67, D 2.28, I 2.47, N 2.23
V11: G 1.31, E 1.65, D 1.91, L 1.95, F 3.13, H 1.69, A 2.07, I 2.3, K 1.39, M 2.32
S3: K 2.27, C 1.69, N 1.98, I 1.63, R 1.37, T 2.32, V 1.75, L 2.13, Y 1.59, H 2.5, E 2.57, P 1.7, F 1.51, A 1.7, D 3.3, G 2.05, W 2.23
L7: T 2.15, M 1.56, G 1.84, W 1.77, P 1.99, H 1.8, K 2.15, C 1.78, F 2.4, E 2.16, D 1.95, Q 1.68, A 1.71, R 1.7, S 2.29, V 2.28, Y 1.86, N 1.84
R9: M 1.46, K 1.83, C 1.63, H 2.02, S 2.1, Q 2.34, Y 2.38, D 1.99, P 1.72, L 2.11, N 2.07, A 2.04, W 3.37, E 2.06, I 1.65, G 2.31, T 1.7, F 1.58, V 1.69
G4: Y 1.27, E 1.99, W 2.56, C 1.74, V 1.78, M 2.08, F 1.71, N 1.73, P 3.26, A 2.09, L 2.77, I 2.36, R 2.14, K 2.12, D 1.96, S 1.99, T 2.2, H 2.33
G5: I 1.72, Q 2.08, S 1.81, L 1.49, W 1.59, R 1.8, N 1.94, Y 1.26, M 1.77, V 1.63, C 1.73, A 2.32, H 3.03, P 2.53, K 2.14, T 2.7, E 2.29, D 2.11, F 1.6
Y1: P 2.29, G 3.48, F 1.6, K 2.88, T 2.88, C 2.81, L 3.97, Q 3.33, I 1.93, S 3, H 2.88, E 3.08, N 3.04, M 2.69, A 2.82, R 3.12, D 3.12
